# Patent US20220177587A1, “METHODS AND USES OF VARIANT CD80 FUSION PROTEINS AND RELATED CONSTRUCTS” (Alpine Immune Sciences, Inc., priority 2018, published 2022)
# Where a chain is given by its changes, count along the chain named. Names and notes keep the numbering of the source.
# B1: E35D/M47L/V68M/D90G (protein)
# chain: VIHVTKEVKEVATLSCGHNVSVEELAQTRIYWQKDKKMVLTMMSGDLNIWPEYKNRTIFDITNNLSIMILALRPSDEGTYECVVLKYEKGAFKREHLAEVTLSVKAD
# B2: H18Y/E35D/A71G/D90G (protein)
# chain: B1 chain with H18Y, L47M, M68V, A71G
# B3: A26E/E35D/V68M/D90G (protein)
# chain: B1 chain with A26E, L47M
# B4: H18Y/A26E/V68M/D90G (protein)
# chain: B1 chain with H18Y, A26E, D35E, L47M
# B5: A26E/M47L/A71G/D90G (protein)
# chain: B1 chain with A26E, D35E, M68V, A71G
# B6: H18Y/M47L/V68M/D90G (protein)
# chain: B1 chain with H18Y, D35E
# B7: H18Y/A26E/M47L/A71G (protein)
# chain: B1 chain with H18Y, A26E, D35E, M68V, A71G, G90D
# B8: A26E/E35D/M47L/D90G (protein)
# chain: B1 chain with A26E, M68V
# B9: H18Y/A26E/V68M/A71G (protein)
# chain: B1 chain with H18Y, A26E, D35E, L47M, A71G, G90D
# B10: H18C/A26P/E35D/M47L/V68M/A71G (protein, UniProt P33681 35-288, looked up, variant H18C A26P E35D M47L V68M A71G)
# T-lymphocyte activation …: VIHVTKEVKEVATLSCGCNVSVEELPQTRIYWQKDKKMVLTMMSGDLNIWPEYKNRTIFDITNNLSIMILGLRPSDEGTYECVVLKYEKDAFKREHLAEVTLSVKADFPTPSISDFEIPTSNIRRIICSTSGGFPEPHLSWLENGEELNAINTTVSQDPETELYAVSSKLDFNMTTNHSFMCLIKYGHLRVNQTFNWNTTKQEHFPDNLLPSWAITLISVNGIFVICCLTYCFAPRCRERRRNERLRRESVRPV
# B11: H18V/A26P/E35D/M47L/V68M/A71G (protein, UniProt P33681 35-288, looked up, variant H18V A26P E35D M47L V68M A71G)
# T-lymphocyte activation …: B10 T-lymphocyte activation … with C18V
# B12: H18V/A26D/E35D/M47V/V68M/A71G/D90G (protein, UniProt P33681 35-288, looked up, variant H18V A26D E35D M47V V68M A71G D90G)
# T-lymphocyte activation …: B10 T-lymphocyte activation … with C18V, P26D, L47V, D90G
# modifications: Fc fusion
# B13: H18L/A26N/D46E/V68M/A71G/D90G (protein, UniProt P33681 35-288, looked up, variant H18L A26N D46E V68M A71G D90G)
# T-lymphocyte activation …: B10 T-lymphocyte activation … with C18L, P26N, D35E, D46E, L47M, D90G
# B14: H18T/A26N/E35D/M47L/V68M/A71G (protein, UniProt P33681 35-288, looked up, variant H18T A26N E35D M47L V68M A71G)
# T-lymphocyte activation …: B10 T-lymphocyte activation … with C18T, P26N
# modifications: Fc fusion
# Molecular target: T1, CD28 (Homo sapiens, UniProt P10747)
# Assay: Flow binding to Jurkat/IL2 reporter cells (CD28)
# Parameters: host or cells: Jurkat cells expressing an IL-2-luciferase reporter
# Details: Table E20; Jurkats (CD28); 33.3 nM
# How it was run: (§1)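 Fusion proteins bound to CHO cells stably expressing CTLA4 or PD-L1, or to Jurkat/IL2 reporter cells with endogenous CD28, for 45 min on ice after blocking in PBS/1% BSA. Detection with PE anti-human Fc by flow cytometry; PE MFI per cell type and binding EC50 determined.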
row,CD28 MFI at 33.3 nM,Molecule
1,3414,B1
2,1310,B2
3,1683,B3
4,2394,B4
5,1955,B5
6,3795,B6
7,611,B7
8,1550,B8
9,99.4,B9

# Same assay, conditions: Table E20; MFI at 33.3 nM relative to CD80 WT IgV-Fc
row,CD28 Fold change to WT CD80 [fold],Molecule
1,77.8,B1
2,29.8,B2
3,38.3,B3
4,54.5,B4
5,44.5,B5
6,86.4,B6
7,13.9,B7
8,35.3,B8
9,2.3,B9

# Same assay, conditions: Table E23; CD80 IgV-Fc (inert) at 33.3 nM; Jurkat (CD28)
row,CD28 MFI at 33.3 nM,Molecule
1,1906,B10
2,2452,B11
3,6253,B12
4,7253,B13
5,1366,B14

# Same assay, conditions: Table E23; MFI at 33.3 nM relative to CD80 WT IgV-Fc
row,CD28 Fold change to WT CD80,Molecule
1,18.7,B10
2,24.0,B11
3,61.3,B12
4,71.1,B13
5,13.4,B14

# Molecular target: T1, CD28
# Assay: Jurkat/IL2 + CHO/OKT3 +/- PD-L1 reporter assay: PD-L1-dependent CD28 costimulation
# Format: cell-based
# Parameters: host or cells: Jurkat cells expressing an IL-2-luciferase reporter
# Details: Table E22; Jurkat/IL2 + CHO/OKT3/PD-L1; 5.0 nM
# How it was run: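 Jurkat reporter cells (100,000/well) preincubated 15 min at room temperature with test protein, then cocultured 5 h at 37 °C with CHO aAPCs bearing anti-CD3 scFv (OKT3) with or without PD-L1. Luciferase luminescence (RLU) read after lysis-substrate addition.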
row,Fold Increase over WT CD80-IgV-Fe [fold],Molecule
1,1.82,B1
2,3.81,B2
3,2.23,B3
4,2.90,B4
5,2.12,B5
6,2.14,B6
7,2.84,B7
8,2.16,B8
9,1.20,B9

# Same assay, conditions: Table E22; Jurkat/IL2 + CHO/OKT3/PD-L1; CD80 Conc 5.0 nM
row,"Relative Luciferase Units (RLU), CD80 Conc 5.0 nM [RLU]",Molecule
1,711,B1
2,1487,B2
3,871,B3
4,1131,B4
5,827,B5
6,834,B6
7,1107,B7
8,843,B8
9,469,B9

# Same assay, conditions: Table E24; Jurkat/IL2 + CHO/OKT3/PD-L1; 5.0 nM
Fold Increase over WT CD80-IgV-Fe,"Relative Luciferase Units (RLU), CD80 Conc 5.0 nM [RLU]",Molecule
5.5,936,B10
4.7,808,B11
4.5,771,B12
4.8,815,B13
6.2,1053,B14

# Molecular target: huCTLA4 (Homo sapiens, UniProt P16410)
# Sequence (P16410 36-223): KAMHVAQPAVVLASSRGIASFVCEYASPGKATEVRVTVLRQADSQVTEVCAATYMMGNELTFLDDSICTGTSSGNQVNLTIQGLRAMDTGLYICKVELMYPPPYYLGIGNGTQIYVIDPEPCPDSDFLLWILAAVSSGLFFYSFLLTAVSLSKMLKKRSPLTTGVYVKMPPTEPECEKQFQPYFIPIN
# Assay: Flow binding to CHO cells stably expressing CTLA4
# Parameters: huCTLA4 and huPD-L1, full-length mammalian surface expression constructs were generated; expressed in transfected cells; host or cells: CHO cells, lentiviral transduction, sorted to >98% purity
# Details: Table E20; CHO cells stably expressing CTLA4; 33.3 nM
# How it was run: as §1
row,CTLA4 MFI at 33.3 nM,Molecule
1,27607,B1
2,25886,B2
3,13879,B3
4,25794,B4
5,21955,B5
6,19006,B6
7,22108,B7
8,18167,B8
9,11323,B9

# Same assay, conditions: Table E20; MFI at 33.3 nM relative to CD80 WT IgV-Fc
row,CTLA4 Fold change to WT CD80 [fold],Molecule
1,20.3,B1
2,19.0,B2
3,10.2,B3
4,19.0,B4
5,16.2,B5
6,14.0,B6
7,16.3,B7
8,13.4,B8
9,8.3,B9

# Same assay, conditions: Table E23; CD80 IgV-Fc (inert) at 33.3 nM; CHO cells stably expressing CTLA4
row,CTLA4 MFI at 33.3 nM,Molecule
1,23371,B10
2,16192,B11
3,22132,B12
4,17045,B13
5,20911,B14

# Same assay, conditions: Table E23; MFI at 33.3 nM relative to CD80 WT IgV-Fc
row,CTLA4 Fold change to WT CD80,Molecule
1,16.9,B10
2,11.7,B11
3,16.0,B12
4,12.3,B13
5,15.1,B14

# Molecular target: huPD-L1 (Homo sapiens, UniProt Q9NZQ7)
# Sequence (Q9NZQ7 19-290): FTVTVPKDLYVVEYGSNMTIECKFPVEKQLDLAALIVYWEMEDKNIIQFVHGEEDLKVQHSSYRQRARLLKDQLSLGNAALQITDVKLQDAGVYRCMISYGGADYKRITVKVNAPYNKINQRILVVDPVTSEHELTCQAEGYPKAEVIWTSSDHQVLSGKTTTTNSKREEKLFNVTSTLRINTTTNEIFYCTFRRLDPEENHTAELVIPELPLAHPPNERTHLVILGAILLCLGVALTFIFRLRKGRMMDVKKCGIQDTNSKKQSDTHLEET
# Assay: Flow binding to CHO cells stably expressing PD-L1
# Parameters: huCTLA4 and huPD-L1, full-length mammalian surface expression constructs were generated; expressed in transfected cells; host or cells: CHO cells, lentiviral transduction, sorted to >98% purity
# Details: Table E20; CHO cells stably expressing PD-L1; 33.3 nM
# How it was run: as §1
row,PD-L1 MFI at 33.3 nM,Molecule
1,23482,B1
2,8524,B2
3,6987,B3
4,12845,B4
5,13204,B5
6,21768,B6
7,15563,B7
8,9577,B8
9,6866,B9

# Same assay, conditions: Table E20; MFI at 33.3 nM relative to CD80 WT IgV-Fc
row,PD-L1 Fold change to WT CD80 [fold],Molecule
1,538.6,B1
2,195.5,B2
3,160.3,B3
4,294.6,B4
5,302.8,B5
6,499.3,B6
7,356.9,B7
8,219.7,B8
9,157.5,B9

# Same assay, conditions: Table E20; ratio of MFI at 33.3 nM
row,Ratio of PDL1:CD28,Molecule
1,6.9,B1
2,6.5,B2
3,4.2,B3
4,5.4,B4
5,6.8,B5
6,5.7,B6
7,25.5,B7
8,6.2,B8
9,69.1,B9

# Same assay, conditions: Table E23; CD80 IgV-Fc (inert) at 33.3 nM; CHO cells stably expressing PD-L1
row,PD-L1 MFI at 33.3 nM,Molecule
1,67010,B10
2,52405,B11
3,67503,B12
4,67999,B13
5,68498,B14

# Same assay, conditions: Table E23; MFI at 33.3 nM relative to CD80 WT IgV-Fc
row,PD-L1 Fold change to WT CD80,Molecule
1,406.1,B10
2,317.6,B11
3,409.1,B12
4,412.1,B13
5,415.1,B14

# Same assay, conditions: Table E23; ratio of MFI at 33.3 nM
row,Ratio of PDL1:CD28,Molecule
1,35.2,B10
2,21.4,B11
3,10.8,B12
4,9.4,B13
5,50.1,B14
